# Experimental data taken from the DeepSol protein solubility set.
# Test: soluble on expression in E. coli; label from the status in PepcDB or PDB records
row,Sequence,soluble on expression in E. coli
1,VSAHVATLHPEPPFALCGPRGTLIARGVRTRYCDVRAAQAALRSGTAPILLGALPFDVSRPAALMVPDGVLRARKLPDWPTGPLPKVRVAAALPPPADYLTRIGRARDLLAAFDGPLHKVVLARAVQLTADAPLDARVLLRRLVVADPTAYGYLVDLTSAGNDDTGAALVGASPELLVARSGNRVMCKPFAGSAPRAADPKLDAANAAALASSAKNRHEHQLVVDTMRVALEPLCEDLTIPAQPQLNRTAAVWHLCTAITGRLRNISTTAIDLALALHPTPAVGGVPTKAATELIAELEGDRGFYAGAVGWCDGRGDGHWVVSIRCAQLSADRRAALAHAGGGIVAESDPDDELEETTTKFATILTALGVEQ,not soluble
2,MDSGMVTPELKKAFAERGIDIIPVDVGTKMLVNELHPSHHDSTQVVIGSPIIPAPGNIDPQLRSYRIRRRMTVEANPFLLDHVIAGTPVLPATCGMSWMINACEECYPGYRYFRCQDFKILKGITFNDKVASEHILEIQEVAKHGSESIEFKTKVLSKTPEGKIHYHFSAHITIVRELPAAPVYESLDMTEDHTIGAIGKDFYQKGGLSLFHGISFQQITRVLNINSQKITVECCWAEIPLETQGQFPVKWHNPYATDLSTQPLWLWLSHVHQEVCLPGQITKSEQFRAIPRNKPFYVSCEIEHKTPSGVTADIILHDREGKIYFRIYQAKAIIAPMNLHLEHHHHHH,not soluble
3,MSEGWNIAVLGATGAVGEALLETLAERQFPVGEIYALARNESAGEQLRFGGKTITVQDAAEFDWTQAQLAFFVAGKEATAAWVEEATNSGCLVIDSSGLFALEPDVPLVVPEVNPFVLTDYRNRNVIAVPDSLTSQLLAALKPLIDQGGLSRISVTSLISASAQGKKAVDALAGQSAKLLNGIPIDEEDFFGRQLAFNMLPLLPDSEGSVREERRIVDEVRKILQDEGLMISASVVQAPVFYGHAQMVNFEALRPLAAEEARDAFVQGEDIVLSEENEFPTQVGDASGTPHLSVGCVRNDYGMPEQVQFWSVADNVRFGGALMAVKIAEKLVQEYLY,soluble
4,MWTGKTGNMLGALALTLTDRIRAEVNVSLDAGGETAAALVLLGANPALTVAEIAEALGLTHSGAVRLVDRLCVSGLAERQSGPDARAVHVRLTSAGARQRRRALLRRQAVLDHALQALSPSEEAAFAQMLDKLLRRMLDFPDQGHRFCRLCDEDLCVPHGCPVEERLVELLERQARETGL,not soluble
5,MGSDKIHHHHHHMEKSYWEQAHLQLPLKYTWKISRNASTEKINVIVFLCIDGRTYPGEAAPNVRYGESVELIDLQFKHFQTVWKDSLLQDEHAYNDVLDGLKLCQSLRFALESAYVHARCDKDPAFFERYTGIKMHTSPLATSYTLPIMDPGQIQEFIQTHDLTRFDTLKIKTGKEESKELIKTASRYFDKMIRVDANEAWTDPDLLIKELEELKRIPLEFIEQPFESAQKDAYKYFKKYSKIPVIADESITFAPDLKEIKELFHGVNMKLMKAGGYREGANILLKSKELGLKTMVGCMVETTLGIRSGMWISGHSDYIDLDGSFVIDNEPFKLVSENLGRLVIKQVNFFIEKWQK,not soluble
6,MAEGPLEAPFWRKGLLVAGLDEAGRGAWAGPIVVGAVVLPPGEYPFRDSKLLSPKARERLAEKVKEVALAFALGVAEAAEVDRLGVLKATLLAAERALLSLPLAPEALVTDYLPLPTPLPLLSPPKADEKSPTVAAASILAKVHRDRIMDELDRLYPGYGFARHKGYGTQEHQEALLALGPSPVHRKRFAPVAQAPLRFPEAP,soluble
7,MPKRKTGYEEMLEDVIETLKQSPEEVNKALETSGKVVEAANDLTKDELALIAAYVKADLKEFSESYEDSKSGPFYLTVADSIWQGLLEITDRTKVEWVELFDDLEHQGLYEAGEVIGLGTLVCDECGHKTTYNHPIIIIPCIKCGHKGFSRQSLKP,not soluble
8,MGSDKIHHHHHHMATVTTSEGSAERREADSGALARGLNILSRLHEAARPLSLQDIAESVGLPTTTCHRLLQSLDVAGYVYREGSLYCPTPRAACPLPLEHPLNRLRRDTAPLMRELQERHGPSVLLIAFLGDHRVTVECVAGNYSVTPYFDTTVTAPLHASVSGKILLSDRTDEQRDALLGQAPYSARTEWTIRDRAALYAELEEVRKRGWATNQNENVIGICAVGSRLAAPSGRALGAIVLTGPSRFFAKGFDTMRDDLLQACQMLNSTSHAIRTMTQLLGV,not soluble
9,MSLSSGEHEASRVLRERDYRWEGTEEEAYKAEGTHFSGARRQTLVGRPAGQEAPAFETRYFEVEPGGYTTLERHEHTHVVMVVRGHAEVVLDDRVEPLTPLDCVYIAPHAWHQIHATGANEPLGFLCIVDSDRDRPQRPDADDLARMCADPAVARRIRTEGHHHHHH,soluble
10,MGSDKIHHHHHHMSKPDRVVLIGVAGDSGCGKSTFLNRLADLFGTELMTVICLDDYHSLDRKGRKEAGVTALDPRANNFDLMYEQVKALKNGETIMKPIYNHETGLIDPPEKIEPNRIIVIEGLHPLYDERVRELLDFSVYLDIDDEVKIAWKIQRDMAERGHSYEDVLASIEARRPDFKAYIEPQRGHADIVIRVMPTQLIPNDTERKVLRVQLIQREGRDGFEPAYLFDEGSTIQWTPCGRKLTCSYPGIRLAYGPDTYYGHEVSVLEVDGQFENLEEMIYVEGHLSKTDTQYYGELTHLLLQHKDYPGSNNGTGLFQVLTGLKMRAAYERLTSQAAPVAASV,not soluble
11,AHHHHHHGSQRALVTLTPSESKRLIAKAVVAMDEVQKALKNGFIYIATGTTAAYIAEELLGEKIEKEKWTVGTISKGRTCVTPKTTWPKHLVLYKGKLFEGEPLEALKEMGPEDVFIKGGNAIDINWNVAVFAAAPDGGTIGKTFGWTITKGVFTITPISLEKFVPTPVKESAKLTGIYSFNWGTGLYAALVPIPHAHPVTEVEAYRILAGVEAIPIAAGGAGGAEGSVTLVLEGDDENMEKAKEITKAVKGEPPLEPYTEDCSICPFAKICGLGSGSF,not soluble
12,AHHHHHHGSGWWYTTNLRSRSNDMDKPEEILNEKDIIKRAYKFGFYVGLHGHTDWFGWVAEVKKKIYEEAKHLGVYEEVKKAYIKGKKAGRVEREKRIHLGLMKQTTSEIPEKIKIVSIERNRGSIASLNFPKIEDMPKTIKKPRFFRLPKILRGGEE,not soluble
13,MAAAGTLERSFVELSGAERERPRHFREFTVCSIGTANAVAGAVKYSESAGGFYYVESGKLFSVTRNRFIHWKTSGDTLELMEESLDINLLNNAIRLKFQNCSVLPGGVYVSETQNRVIILMLTNQTVHRLLLPHPSRMYRSVSWLSAISFISQITLGVTNVVLERCLLELKEIWILVIPHQAYFDSYRLKLEHHHHHH,not soluble
14,MSLRTLAVETSCDETALAIYDDQKGVLGNVILSQAVVHSPFGGVVPELSAREHTRNILPIFDRLLKESRINLEEIDFISFTLTPGLILSLVVGVAFAKALAYEYRKPLVPVHHLEGHIYSVFLEKKVEYPFLALIISGGHTDLYLVRDFGRYDFLGGTLDDAVGEAYDKVAKMLGLGYPGGPIIDRLAKEGKKLYPLPKPLMEEGNLNFSFSGLKTAILNLLKKEKNVRKEDIAYSFQETVVEILLEKSLWAMKKTGIKRLVVVGGVSANSRLREVFKKASQEYGFELYIPHPSLSTDNALMIAYAGMERFKRGVVAPLDVNPQPNIPLEEFGRIWTEGHHHHHH,soluble
15,MGSDKIHHHHHHMHNSLVRELVQAGRRTSCLGLTNGKMGIVIALFRYARLSGELTCEDVGCELLDEIYEHLDSSIPISFGSGLWGIGWGIEYLIQNSYMEGDADEVLKDIDQCAARCIHAYGMSGLSLNNGIVGLGRYILIRIIPTFLKGDTVSSAFLKEYLIYLIDWLEERLEYTNESIDDLLDFLFDLYPTGFYRTKVSVLIEKCMNRYNL,not soluble
16,SINVYLSLFSQGAESITTYTFNTHKAQHTFCKRCGVQSFYTPRSNPGGFGIAPHCLDEGTVRSVVTEEFNGSDWERAMKEHKTIKNMSKE,soluble
17,MTATSDKVLKIQLRSASATVPTKGSATAAGYDIYASQDITIPAMGQGMVSTDISFTVPVGTYGRIAPRSGLAVKNGIQTGAGVVDRDYTGEVKVVLFNHSQRDFAIKKGDRVAQLILEKIVDDAQIVVVDSLEESARGAGGFGSTGN,not soluble
18,MPTFTTHRQIAHSAREMFDLVADIECYPEFLPMCEALIVRSRKKCEEKTLLLADMTVGYKLVRETFTTQVFLQPKEKRIEVKYIDGPFKYLENRWAFHHTEKSNICNIEFFIDYEFKSKMLGLVMGSMFDIAFHKFTDAFERRAHRIYGSPVI,soluble
19,MSLNSSQIQSVNVELFNVPLDEVLNDAKHGDHTHFELILCTITCTDGTQGVGYTYTGGKGGRAIYSLLNDELKPFLMGKDASCINHLWEEMQYHLHYVGRGGLVSFAISAVDIALWDIHCKVLNQPLWKVAGGCSDRVNCYAGGIDLNFSTEKLLGNIQGYLDCGFEAVKIKVGKEDYREDVARVAAVRNLIGPDAIFMVDANYSLTVNKAIKFAQAIEQYDITWFEEPTIPDDFAGFAHIASKINIPLAMGENLHTIYEFNQAISQAKLGFLQPDASNIGGITGWLTVAQMGYANNLPICSHGMHELHVSLMASQPNAGYLEVHSFPIDRYTTHPLKLENGKAVAPSTPGVGVEFKTELLLPYLVKHSEGHHHHHH,soluble
20,PLPEACADMLWSNLGLLAAEQILPVLHNWARALKTDGLLFFTCFGRDTLAELKCRLKENGIESRSALFPDMHDLGDMLAENGFYDPVTDTAKLVLDYKKAETFWADMDTLGVWRAMAWNDENAARSCVGTIFEREGGLGITLETVYGHAVK,not soluble
21,MGSDKIHHHHHHARLNAFKQLTPGSDVRDWIAAAGQVGGLGAADLNFPDHFAVYDADQMGNFLGEAALTLNGIAMRYYTDPGFKLGAFTHPDAAVRQAALDVTKQGIDTCARMGGKTVTLWMGQDGFDYAFQMDYGLAWDRTVAAIADICAHDPNIDIAIEYKPNEPRAFALMPDIGTTLLACREVGAVNLGVTLDFAHVLYADEMPAHSAALIGRHSRMIGLHLNDGYGKRDDGLMVGSVHAIQTVELLVAMLRMGQTDVIYFDTFPDMGGLNPIEEARTNVAVTDRLMAVAESLMEDPALAQAIDRQDAAASHRIVARALYGS,not soluble
22,GSSGSSGMPMTLGYWDIRGLAHAIRLFLEYTDSSYEEKRYTMGDAPDYDQSQWLNEKFKLGLDFPNLPYLIDGSHKITQSNAILRYLGRKHNLCGETEEERIRVDILENQLMDNRMVLARLCYNADFEKLKPGYLEQLPGMMRLYSEFLGKRPWFAGDKITFVDFIAYDVLERNQVFEAKCLDAFPNLKDFIARFEGLKKISDYMKTSRFLPRPMFTKMATWGSNSGPSSG,soluble
23,MGSDKIHHHHHHMFENEILFDNGQHKFMFLGWEEKEEEIVQTNQYLILDGNEGILLDPGGAHVFPRVMSNVAEVVDLSSIRHIFYTHQDPDVTSGILLWLSICENAKIYISSLWVRFLPHFGIYDQKRIVPISDKGTKIKLLSGNELEILPAHFLHSTGNFVLYDPVAKILFSGDIGAAVFEKGKRYRYVDDFERHLPLMEAFHKRYMSSNAACKKWVDMVSKKKIDMIAPQHGAVFRGESVKKFLEWFRNLKCGVDLIDNLYSL,not soluble
24,MKNEELDFDITVFDEGKADLKAAAIYNVPFFPKGAKADEIYTHIKAQIASMLEVKYIDSKVVSISGEKGDFTVNDEQGLGIKADYIIVATGANKSDIKELEDFVIPHELMPKPNKFCFKHHGRQIIKEGIYAAGLASGVTTMVACAMGSANEAACAILSDIKGAVSVYHDTPLEHHHHHH,not soluble
25,PVPRTCWIGPWKKNLAQGKITLKLINWIKKAELKNQPVLIFFPEIEAMNQFAEALVNYDFTRPVTVHSADQLRKEKVEWLREGKIKLLLTTTILERGVTFKDVQVAVFGSEGRIFTEAALVQIAGRAGRKLTHPTGDVCFFHYGKTTEMNRAITHIKKMNQLGFKEG,soluble
